Measured values reported in article PMC7473711, “Characterization of the different oligomeric states of the DAN family antagonists SOSTDC1 and SOST” (Biochemical Journal, 2020).

B1: chicken SOSTDC1 (Sclerostin domain containing protein 1), residues 23-206 (natural protein, UniProt Q6VYA3 23-206, looked up)
chain: AFKNDATEILYSHVVKPAPASPSSNSTLNQARNGGRHYAGTGSDRNNRVQVGCRELRSTKYISDGQCTSINPLKELVCAGECLPLPLLPNWIGGGYGTKYWSRRSSQEWRCVNDKTRTQRIQLQCQDGSIRTYKITVVTACKCKRYTRQHNESSHNFEGTSQAKPVQHHKERKRASKSSKHSTS
notes: SOSTDC1, chicken, amino acid residues 23-206, cloned into pET21a from pCS2-Flag-cSOSTDC1; 20.7 kDa; The vector is pET21a; also called cSOSTDC1; Wise
B2: human SOSTDC1 (Sclerostin domain containing protein 1) (natural protein, UniProt Q6X4U4 24-206, looked up)
chain: FKNDATEILYSHVVKPVPAHPSSNSTLNQARNGGRHFSNTGLDRNTRVQVGCRELRSTKYISDGQCTSISPLKELVCAGECLPLPVLPNWIGGGYGTKYWSRRSSQEWRCVNDKTRTQRIQLQCQDGSTRTYKITVVTACKCKRYTRQHNESSHNFESMSPAKPVQHHRERKRASKSSKHSMS
modifications: native glycosylation
notes: signal peptide in the construct; SOSTDC1, human, full-length gene made by gene synthesis and codon optimised (GenScript), in pcDNA4 (pCDNA4-hSOSTDC1-PP-Myc-His); secreted into conditioned medium; after cleavage the residues LEVLFQ probably stay on the C-terminus (surmised); The secreted protein probably lacks its signal peptide (surmised); also called hSOSTDC1; Wise; source: Expi293F, transiently …
B3: Gremlin2 (natural protein)
chain: RKNRPAGAIPSPYKDGSSNNSERWHHQIKEVLASSQEALVVTERKYLKSDWCKTQPLRQTVSEEGCRSRTILNRFCYGQCNSFYIPRHVKKEEDSFQSCAFCKPQRVTSVIVELECPGLDPPFRIKKIQKVKHCRCMSVNLSDSDKQ
notes: Gremlin2 (Grem2); also called Grem2

How the values were obtained:
[1] = target: the molecule itself; test: SEC; analytical SEC, Superdex S75 HR 10/300, room temperature, 0.5 ml/min, 20 mM HEPES, 1 M NaCl, pH 7.5; 100-150 µg protein loaded; self-association
[2] = target: the molecule itself; test: SEC; protein that was monomeric at low pH (pH 3.0) neutralised to pH 7.5 and run again on SEC

| Protein | stoichiometry N [1] | stoichiometry N [2] |
| --- | --- | --- |
| B1 | 2 |  |
| B2 | 2 |  |
| B3 |  | 2 |
